Test results from publication PMC9482650, “Quantitative fragmentomics allow affinity mapping of interactomes” (Nature Communications, 2022).

T1: PDZRN3_1, Q9UPQ7
T1 sequence (Q9UPQ7 244-349, limits assumed, looked up): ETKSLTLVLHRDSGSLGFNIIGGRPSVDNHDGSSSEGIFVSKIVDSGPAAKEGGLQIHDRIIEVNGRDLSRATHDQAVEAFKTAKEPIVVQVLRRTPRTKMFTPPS

T2: HTRA3, P83110
T2 sequence (P83110 354-453, limits assumed, looked up): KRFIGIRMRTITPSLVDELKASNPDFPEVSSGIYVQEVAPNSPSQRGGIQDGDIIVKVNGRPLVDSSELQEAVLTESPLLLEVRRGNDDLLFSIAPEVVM

T3: MPDZ_10, O75970
T3 sequence (O75970 1624-1722, limits assumed, looked up): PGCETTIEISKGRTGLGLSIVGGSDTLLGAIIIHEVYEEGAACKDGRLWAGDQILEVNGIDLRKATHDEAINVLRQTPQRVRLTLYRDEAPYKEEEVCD

T4: FRMPD1, Q5SYB0
T4 sequence (Q5SYB0 52-145, limits assumed, looked up): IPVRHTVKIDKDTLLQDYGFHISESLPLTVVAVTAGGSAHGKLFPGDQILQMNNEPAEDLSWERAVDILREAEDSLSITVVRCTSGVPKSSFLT

T5: DFNB31_2, Q9P202
T5 sequence (Q9P202 274-371, limits assumed, looked up): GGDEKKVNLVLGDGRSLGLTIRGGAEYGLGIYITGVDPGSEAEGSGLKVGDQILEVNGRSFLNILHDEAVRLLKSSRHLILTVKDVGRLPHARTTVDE

T6: SNTB1, Q13884
T6 sequence (Q13884 107-205, limits assumed, looked up): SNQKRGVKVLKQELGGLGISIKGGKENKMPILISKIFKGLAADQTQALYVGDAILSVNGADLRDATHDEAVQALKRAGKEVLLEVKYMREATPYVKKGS

T7: LRRC7, Q96NW7
T7 sequence (Q96NW7 1440-1537, limits assumed, looked up): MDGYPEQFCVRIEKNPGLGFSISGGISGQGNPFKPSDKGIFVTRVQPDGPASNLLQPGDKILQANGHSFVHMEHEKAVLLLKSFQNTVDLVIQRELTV

T8: MPP7, Q5T2T1
T8 sequence (Q5T2T1 134-230, limits assumed, looked up): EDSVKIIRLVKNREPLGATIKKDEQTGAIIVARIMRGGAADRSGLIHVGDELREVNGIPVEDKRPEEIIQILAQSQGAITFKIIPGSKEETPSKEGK

T9: RHPN1, Q8TCX5
T9 sequence (Q8TCX5 508-602, limits assumed, looked up): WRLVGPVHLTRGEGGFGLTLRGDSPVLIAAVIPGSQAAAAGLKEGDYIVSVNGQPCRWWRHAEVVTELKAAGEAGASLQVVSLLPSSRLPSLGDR

T10: ARHGAP21, Q5T5U3
T10 sequence (Q5T5U3 45-169, limits assumed, looked up): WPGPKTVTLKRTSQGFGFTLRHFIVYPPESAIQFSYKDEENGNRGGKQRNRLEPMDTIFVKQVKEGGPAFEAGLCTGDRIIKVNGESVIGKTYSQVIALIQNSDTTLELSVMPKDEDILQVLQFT

T11: MPDZ_5, O75970
T11 sequence (O75970 695-796, limits assumed, looked up): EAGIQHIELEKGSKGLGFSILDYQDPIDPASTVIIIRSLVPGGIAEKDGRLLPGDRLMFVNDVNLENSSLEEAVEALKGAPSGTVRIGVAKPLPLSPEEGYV


target: T1, PDZRN3_1, Q9UPQ7; experiment: holdup assay; set-up: key: below the threshold = too weak to quantify, mostly under pKd 3.1 to 4; settings: plain residues with an end cap or a label only (N-terminal biotin on a linker: ado-ado)

Binder | pKd
LPPPESESKV [KCNJ9, Q92806] | below the threshold
KKTPVSRSHL [SLC22A3, O75751] | below the threshold

target: DLG4_1, P78352; experiment: holdup assay; set-up: key: below the threshold = too weak to quantify, mostly under pKd 3.1 to 4; settings: plain residues with an end cap or a label only (N-terminal biotin on a linker: ado-ado)
Sequence (P78352 62-152): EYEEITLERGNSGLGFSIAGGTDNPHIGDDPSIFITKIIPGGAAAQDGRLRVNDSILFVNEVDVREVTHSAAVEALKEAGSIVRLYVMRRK

Binder | pKd
LPPPESESKV [KCNJ9, Q92806] | below the threshold
KKTPVSRSHL [SLC22A3, O75751] | 3.55

target: FRMPD2_2, Q68DX3; experiment: holdup assay; set-up: key: below the threshold = too weak to quantify, mostly under pKd 3.1 to 4; settings: plain residues with an end cap or a label only (N-terminal biotin on a linker: ado-ado)
Sequence (Q68DX3 944-1038): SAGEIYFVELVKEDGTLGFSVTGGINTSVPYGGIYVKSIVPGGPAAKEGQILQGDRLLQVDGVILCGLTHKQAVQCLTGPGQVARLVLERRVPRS

Binder | pKd
LPPPESESKV [KCNJ9, Q92806] | 3.56
KKTPVSRSHL [SLC22A3, O75751] | below the threshold

target: GORASP1, Q9BQQ3; experiment: holdup assay; set-up: key: below the threshold = too weak to quantify, mostly under pKd 3.1 to 4; settings: plain residues with an end cap or a label only (N-terminal biotin on a linker: ado-ado)
Sequence (Q9BQQ3 1-208): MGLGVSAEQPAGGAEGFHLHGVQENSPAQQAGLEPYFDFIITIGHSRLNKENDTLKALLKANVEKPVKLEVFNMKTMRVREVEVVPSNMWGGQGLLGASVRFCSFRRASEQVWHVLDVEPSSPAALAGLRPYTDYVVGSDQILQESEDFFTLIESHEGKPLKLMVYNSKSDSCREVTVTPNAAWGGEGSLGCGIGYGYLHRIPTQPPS

Binder | pKd
LPPPESESKV [KCNJ9, Q92806] | below the threshold
KKTPVSRSHL [SLC22A3, O75751] | below the threshold

target: T2, HTRA3, P83110; experiment: holdup assay; set-up: key: below the threshold = too weak to quantify, mostly under pKd 3.1 to 4; settings: plain residues with an end cap or a label only (N-terminal biotin on a linker: ado-ado)

Binder | pKd
LPPPESESKV [KCNJ9, Q92806] | below the threshold
KKTPVSRSHL [SLC22A3, O75751] | below the threshold

target: T3, MPDZ_10, O75970; experiment: holdup assay; set-up: key: below the threshold = too weak to quantify, mostly under pKd 3.1 to 4; settings: plain residues with an end cap or a label only (N-terminal biotin on a linker: ado-ado)

Binder | pKd
LPPPESESKV [KCNJ9, Q92806] | below the threshold
KKTPVSRSHL [SLC22A3, O75751] | below the threshold

target: SCRIB_1, Q14160; experiment: holdup assay; set-up: key: below the threshold = too weak to quantify, mostly under pKd 3.1 to 4; settings: plain residues with an end cap or a label only (N-terminal biotin on a linker: ado-ado)
Sequence (Q14160 718-814): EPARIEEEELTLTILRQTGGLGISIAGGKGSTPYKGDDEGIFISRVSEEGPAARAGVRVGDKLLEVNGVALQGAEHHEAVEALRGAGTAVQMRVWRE

Binder | pKd
LPPPESESKV [KCNJ9, Q92806] | below the threshold
KKTPVSRSHL [SLC22A3, O75751] | 3.91

target: TJP1_2, Q07157; experiment: holdup assay; set-up: key: below the threshold = too weak to quantify, mostly under pKd 3.1 to 4; settings: plain residues with an end cap or a label only (N-terminal biotin on a linker: ado-ado)
Sequence (Q07157 181-274): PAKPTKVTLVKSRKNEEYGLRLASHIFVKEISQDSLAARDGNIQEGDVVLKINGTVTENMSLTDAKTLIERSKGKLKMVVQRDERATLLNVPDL

Binder | pKd
LPPPESESKV [KCNJ9, Q92806] | below the threshold
KKTPVSRSHL [SLC22A3, O75751] | below the threshold

target: T4, FRMPD1, Q5SYB0; experiment: holdup assay; set-up: key: below the threshold = too weak to quantify, mostly under pKd 3.1 to 4; settings: plain residues with an end cap or a label only (N-terminal biotin on a linker: ado-ado)

Binder | pKd
LPPPESESKV [KCNJ9, Q92806] | below the threshold
KKTPVSRSHL [SLC22A3, O75751] | below the threshold

target: T5, DFNB31_2, Q9P202; experiment: holdup assay; set-up: key: below the threshold = too weak to quantify, mostly under pKd 3.1 to 4; settings: plain residues with an end cap or a label only (N-terminal biotin on a linker: ado-ado)

Binder | pKd
LPPPESESKV [KCNJ9, Q92806] | below the threshold
KKTPVSRSHL [SLC22A3, O75751] | below the threshold

target: NHERF4_4, Q86UT5; experiment: holdup assay; set-up: key: below the threshold = too weak to quantify, mostly under pKd 3.1 to 4; settings: plain residues with an end cap or a label only (N-terminal biotin on a linker: ado-ado)
Sequence (Q86UT5 464-550): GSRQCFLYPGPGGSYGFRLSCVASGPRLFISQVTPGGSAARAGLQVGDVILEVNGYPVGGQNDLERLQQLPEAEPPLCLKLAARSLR

Binder | pKd
LPPPESESKV [KCNJ9, Q92806] | below the threshold
KKTPVSRSHL [SLC22A3, O75751] | below the threshold

target: DLG2_3, Q15700; experiment: holdup assay; set-up: key: below the threshold = too weak to quantify, mostly under pKd 3.1 to 4; settings: plain residues with an end cap or a label only (N-terminal biotin on a linker: ado-ado)

Binder | pKd
LPPPESESKV [KCNJ9, Q92806] | 3.7
KKTPVSRSHL [SLC22A3, O75751] | below the threshold

target: GRIP2_6, Q9C0E4; experiment: holdup assay; set-up: key: below the threshold = too weak to quantify, mostly under pKd 3.1 to 4; settings: plain residues with an end cap or a label only (N-terminal biotin on a linker: ado-ado)
Sequence (Q9C0E4 648-740): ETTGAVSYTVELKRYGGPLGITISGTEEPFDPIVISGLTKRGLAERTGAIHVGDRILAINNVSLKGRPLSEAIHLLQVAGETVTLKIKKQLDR

Binder | pKd
LPPPESESKV [KCNJ9, Q92806] | below the threshold
KKTPVSRSHL [SLC22A3, O75751] | below the threshold

target: T6, SNTB1, Q13884; experiment: holdup assay; set-up: key: below the threshold = too weak to quantify, mostly under pKd 3.1 to 4; settings: plain residues with an end cap or a label only (N-terminal biotin on a linker: ado-ado)

Binder | pKd
LPPPESESKV [KCNJ9, Q92806] | 4.32
KKTPVSRSHL [SLC22A3, O75751] | below the threshold

target: SCRIB_3, Q14160; experiment: holdup assay; set-up: key: below the threshold = too weak to quantify, mostly under pKd 3.1 to 4; settings: plain residues with an end cap or a label only (N-terminal biotin on a linker: ado-ado)
Sequence (Q14160 999-1103): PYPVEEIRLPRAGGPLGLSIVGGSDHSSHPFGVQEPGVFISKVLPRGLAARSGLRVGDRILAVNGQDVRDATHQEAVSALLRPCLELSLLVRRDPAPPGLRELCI

Binder | pKd
LPPPESESKV [KCNJ9, Q92806] | below the threshold
KKTPVSRSHL [SLC22A3, O75751] | below the threshold

target: T7, LRRC7, Q96NW7; experiment: holdup assay; set-up: key: below the threshold = too weak to quantify, mostly under pKd 3.1 to 4; settings: plain residues with an end cap or a label only (N-terminal biotin on a linker: ado-ado)

Binder | pKd
LPPPESESKV [KCNJ9, Q92806] | below the threshold
KKTPVSRSHL [SLC22A3, O75751] | below the threshold

target: Inadl_1, Q8NI35; experiment: holdup assay; set-up: key: below the threshold = too weak to quantify, mostly under pKd 3.1 to 4; settings: plain residues with an end cap or a label only (N-terminal biotin on a linker: ado-ado)
Sequence (Q8NI35 113-229): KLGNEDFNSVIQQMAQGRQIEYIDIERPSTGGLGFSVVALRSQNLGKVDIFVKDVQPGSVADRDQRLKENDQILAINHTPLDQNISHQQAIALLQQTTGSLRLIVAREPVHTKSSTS

Binder | pKd
LPPPESESKV [KCNJ9, Q92806] | below the threshold
KKTPVSRSHL [SLC22A3, O75751] | below the threshold

target: T8, MPP7, Q5T2T1; experiment: holdup assay; set-up: key: below the threshold = too weak to quantify, mostly under pKd 3.1 to 4; settings: plain residues with an end cap or a label only (N-terminal biotin on a linker: ado-ado)

Binder | pKd
LPPPESESKV [KCNJ9, Q92806] | below the threshold
KKTPVSRSHL [SLC22A3, O75751] | below the threshold

target: T9, RHPN1, Q8TCX5; experiment: holdup assay; set-up: key: below the threshold = too weak to quantify, mostly under pKd 3.1 to 4; settings: plain residues with an end cap or a label only (N-terminal biotin on a linker: ado-ado)

Binder | pKd
LPPPESESKV [KCNJ9, Q92806] | 4.44
KKTPVSRSHL [SLC22A3, O75751] | below the threshold

target: IL16_1, Q14005; experiment: holdup assay; set-up: key: below the threshold = too weak to quantify, mostly under pKd 3.1 to 4; settings: plain residues with an end cap or a label only (N-terminal biotin on a linker: ado-ado)
Sequence (Q14005 210-306): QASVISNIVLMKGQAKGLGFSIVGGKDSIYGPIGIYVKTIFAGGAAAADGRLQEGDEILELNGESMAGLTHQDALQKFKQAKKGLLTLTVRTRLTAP

Binder | pKd
LPPPESESKV [KCNJ9, Q92806] | 4.11
KKTPVSRSHL [SLC22A3, O75751] | below the threshold

target: T10, ARHGAP21, Q5T5U3; experiment: holdup assay; set-up: key: below the threshold = too weak to quantify, mostly under pKd 3.1 to 4; settings: plain residues with an end cap or a label only (N-terminal biotin on a linker: ado-ado)

Binder | pKd
LPPPESESKV [KCNJ9, Q92806] | below the threshold
KKTPVSRSHL [SLC22A3, O75751] | 3.97

target: PDLIM1, O00151; experiment: holdup assay; set-up: key: below the threshold = too weak to quantify, mostly under pKd 3.1 to 4; settings: plain residues with an end cap or a label only (N-terminal biotin on a linker: ado-ado)
Sequence (O00151 1-87): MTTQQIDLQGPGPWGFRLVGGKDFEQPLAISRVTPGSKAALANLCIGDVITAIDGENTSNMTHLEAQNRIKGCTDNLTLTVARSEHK

Binder | pKd
LPPPESESKV [KCNJ9, Q92806] | below the threshold
KKTPVSRSHL [SLC22A3, O75751] | below the threshold

target: Inadl_3, Q8NI35; experiment: holdup assay; set-up: key: below the threshold = too weak to quantify, mostly under pKd 3.1 to 4; settings: plain residues with an end cap or a label only (N-terminal biotin on a linker: ado-ado)
Sequence (Q8NI35 359-469): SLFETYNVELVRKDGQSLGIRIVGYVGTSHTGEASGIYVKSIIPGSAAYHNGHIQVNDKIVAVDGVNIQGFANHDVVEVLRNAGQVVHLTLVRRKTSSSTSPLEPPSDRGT

Binder | pKd
LPPPESESKV [KCNJ9, Q92806] | below the threshold
KKTPVSRSHL [SLC22A3, O75751] | below the threshold

target: GORASP2, Q9H8Y8; experiment: holdup assay; set-up: key: below the threshold = too weak to quantify, mostly under pKd 3.1 to 4; settings: plain residues with an end cap or a label only (N-terminal biotin on a linker: ado-ado)

Binder | pKd
LPPPESESKV [KCNJ9, Q92806] | below the threshold
KKTPVSRSHL [SLC22A3, O75751] | below the threshold

target: Inadl_4, Q8NI35; experiment: holdup assay; set-up: key: below the threshold = too weak to quantify, mostly under pKd 3.1 to 4; settings: plain residues with an end cap or a label only (N-terminal biotin on a linker: ado-ado)
Sequence (Q8NI35 547-651): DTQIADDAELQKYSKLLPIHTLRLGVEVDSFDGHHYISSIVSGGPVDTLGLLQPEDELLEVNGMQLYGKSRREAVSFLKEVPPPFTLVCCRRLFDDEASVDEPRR

Binder | pKd
LPPPESESKV [KCNJ9, Q92806] | below the threshold
KKTPVSRSHL [SLC22A3, O75751] | below the threshold

target: T11, MPDZ_5, O75970; experiment: holdup assay; set-up: key: below the threshold = too weak to quantify, mostly under pKd 3.1 to 4; settings: plain residues with an end cap or a label only (N-terminal biotin on a linker: ado-ado)

Binder | pKd
LPPPESESKV [KCNJ9, Q92806] | below the threshold
KKTPVSRSHL [SLC22A3, O75751] | below the threshold

target: NHERF4_1, Q86UT5-2; experiment: holdup assay; set-up: key: below the threshold = too weak to quantify, mostly under pKd 3.1 to 4; settings: plain residues with an end cap or a label only (N-terminal biotin on a linker: ado-ado)
Sequence (Q86UT5 other isoform, or with tags, fused parts or gaps): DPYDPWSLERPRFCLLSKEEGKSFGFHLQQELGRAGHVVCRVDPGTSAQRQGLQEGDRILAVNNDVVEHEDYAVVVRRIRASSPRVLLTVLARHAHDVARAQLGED

Binder | pKd
LPPPESESKV [KCNJ9, Q92806] | below the threshold
KKTPVSRSHL [SLC22A3, O75751] | 3.94
